Laboratory results reported in US20100261872A1, “Factor VIII: remodeling and glycoconjugation of factor VIII” (Neose Technologies, Inc., published 2010).
Values belong to the molecule of their own block, whether it stands above or below them.

How the values were obtained:
[1] = target: Recombinant human erythropoietin (rhEPO) from the baculovirus/Sf9 expression system (Protein Sciences) (human)
[2] = target: Recombinant human erythropoietin (rhEPO) from the baculovirus/Sf9 expression system (Protein Sciences) (human); remark: listed apart in the source
[3] = target: Ribonuclease B (RNaseB) purified from bovine pancreas (Sigma) (bovine) (UniProt P61823)
Sequence of Ribonuclease B (RNaseB) purified from bovine pancreas (Sigma) (bovine) (P61823 27-150): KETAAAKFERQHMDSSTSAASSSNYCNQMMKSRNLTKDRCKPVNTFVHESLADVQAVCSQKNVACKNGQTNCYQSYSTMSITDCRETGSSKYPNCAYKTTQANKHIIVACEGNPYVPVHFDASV

[4] = target: Fc Cri-IgG1 (Cri-IgG1 treated with a protease so that only the Fc portion remained) (human)
[5] = target: Cri-IgG1 monoclonal antibody (non-recombinant, isolated from a human myeloma) (human)
[6] = target: Recombinant human erythropoietin (rhEPO) from the baculovirus/Sf9 expression system (Protein Sciences) (human); remark: listed apart in the source
Target sequence in this assay (chain, as listed by the source): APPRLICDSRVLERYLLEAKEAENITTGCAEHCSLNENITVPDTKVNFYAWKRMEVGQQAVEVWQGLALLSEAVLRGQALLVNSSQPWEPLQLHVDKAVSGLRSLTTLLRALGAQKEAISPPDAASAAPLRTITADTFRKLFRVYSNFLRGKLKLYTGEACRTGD

[7] = target: Fc Cri-IgG1 (Cri-IgG1 treated with a protease so that only the Fc portion remained) (human); remark: listed apart in the source
[8] = target: Cri-IgG1 monoclonal antibody (non-recombinant, isolated from a human myeloma) (human); remark: listed apart in the source
[9] = target: Fc Cri-IgG1 (Cri-IgG1 treated with a protease so that only the Fc portion remained) (human); remark: listed apart in the source
[10] = target: Cri-IgG1 monoclonal antibody (non-recombinant, isolated from a human myeloma) (human); remark: listed apart in the source
[11] = target: ATIII (Antithrombin III) from Genzyme Transgenics (human)
[12] = target: asialo-α1 Antitrypsin (PPL) (human)
Sequence of asialo-α1 Antitrypsin (PPL) (human) (chain, as listed by the source limits assumed): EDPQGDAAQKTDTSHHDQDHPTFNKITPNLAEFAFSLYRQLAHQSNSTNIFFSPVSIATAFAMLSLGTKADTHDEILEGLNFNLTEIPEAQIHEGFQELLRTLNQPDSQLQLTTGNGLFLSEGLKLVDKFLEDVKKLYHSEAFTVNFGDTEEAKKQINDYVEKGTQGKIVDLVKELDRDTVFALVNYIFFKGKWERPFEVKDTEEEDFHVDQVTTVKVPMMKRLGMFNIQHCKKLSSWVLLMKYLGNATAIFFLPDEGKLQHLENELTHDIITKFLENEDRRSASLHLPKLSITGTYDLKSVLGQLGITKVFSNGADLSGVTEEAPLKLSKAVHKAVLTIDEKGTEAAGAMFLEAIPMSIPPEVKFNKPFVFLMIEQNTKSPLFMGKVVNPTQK

[13] = target: Ribonuclease B (RNaseB) purified from bovine pancreas (Sigma) (bovine) (UniProt P61823); remark: listed apart in the source
[14] = target: Recombinant human erythropoietin (rhEPO) from the baculovirus/Sf9 expression system (Protein Sciences) (human); remark: listed apart in the source
Target sequence in this assay (chain, as listed by the source): as the sequence (chain, as listed by the source) above

[15] = target: Fc Cri-IgG1 (Cri-IgG1 treated with a protease so that only the Fc portion remained) (human); remark: listed apart in the source
[16] = target: Cri-IgG1 monoclonal antibody (non-recombinant, isolated from a human myeloma) (human); remark: listed apart in the source
[17] = target: Recombinant human erythropoietin (rhEPO) from the baculovirus/Sf9 expression system (Protein Sciences) (human); remark: listed apart in the source
Target sequence in this assay (chain, as listed by the source): as above

Molecule: β-N-acetylhexosaminidase (from Jack Bean, Seikagaku) (enzyme)
relative amount of the M3N2F glycoform by CE [7]: 100%
relative amount of the M3N2F glycoform by CE [8]: 91.4%

B1: ST3Gal III (α2,3-sialyltransferase, EC 2.4.99.6) (enzyme)
chain: KLHLLQWEDSNSLILSLDSAGQTLGTEYDRLGFLLKLDSKLPAELATKYANFSEGACKPGYASAMMTAIFPRFSKPAPMFLDDSFRKWARIREFVPPFGIKGQDNLIKAILSVTKEYRLTPALDSLHCRRCIIVGNGGVLANKSLGSRIDDYDIVIRLNSAPVKGFEKDVGSKTTLRITYPEGAMQRPEQYERDSLFVLAGFKWQDFKWLKYIVYKERVSASDGFWKSVATRVPKEPPEIRILNPYFIQEAAFTLIGLPFNNGLMGRGNIPTLGSVAVTMALDGCDEVAVAGFGYDMNTPNAPLHYYETVRMAAIKESWTHNIQREKEFLRKLVKARVITDLSSGI
relative amount of the S2G2 glycoform by HPLC (peak at 49.4 min) [9]: 61.9%
relative amount of the S2G2 glycoform by HPLC (peak at 49.4 min) [10]: 58.9%
% Rxn (completion of sialylation by 14C-NeuAc incorporated, against terminal Gal content) (Asialo-fetuin (Sigma)): 116%
% Rxn (completion of sialylation by 14C-NeuAc incorporated, against terminal Gal content) [11]: 117%
% Rxn (completion of sialylation by 14C-NeuAc incorporated, against terminal Gal content) [12]: 100%
incorporation of radiolabelled sialic acid [2]: 10.9 moles/mole
addition of sialic acid; MALDI-TOF [13]: 90%

B2: GnT-I (β1,2-mannosyl-UDP-N-acetylglucosaminosyltransferase I) (enzyme)
chain: TRPAPGRPPSVSALDGDPASLTREVIRLAQDAEVELERQRGLLQQIGDALSSQRGRVPTAAPPAQPRVPVTPAPAVIPILVIACDRSTVRRCLDKLLHYRPSAELFPIIVSQDCGHEETAQAIASYGSAVTHIRQPDLSSIAVPPDHRKFQGYYKIARHYRWALGQVFRQFRFPAAVVVEDDLEVAPDFFEYFRATYPLLKADPSLWCVSAWNDNGKEQMVDASRPELLYRTDFFPGLGWLLLAELWAELEPKWPKAFWDDWMRRPEQRQGRACIRPEISRTMTFGRKGVSHGQFFDQHLKFIKLNQQFVHFTQLDLSYLQREAYDRDFLARVYGAPQLQVEKVRTNDRKELGEVRVQYTGRDSFKAFAKALGVMDDLKSGVPRAGYRGIVTFQFRGRRVHLAPPLTWEGYDPSWN
conversion of the tri-mannosyl glycoform to 'tri-mannosyl core+2 GlcNAc' (2-AA HPLC) [14]: 100%

B3: GnT-II (β1,2-mannosyl-UDP-N-acetylglucosaminosyltransferase II) (enzyme)
chain: RQRKNEALAPPLLDAEPARGAGGRGGDHPSVAVGIRRVSNVSAASLVPAVPQPEADNLTLRYRSLVYQLNFDQTLRNVDKAGTWAPRELVLVVQVHNRPEYLRLLLDSLRKAQGIDNVLVIFSHDFWSTEINQLIAGVNFCPVLQVFFPFSIQLYPNEFPGSDPRDCPRDLPKNAALKLGCINAEYPDSFGHYREAKFSQTKHHWWWKLHFVWERVKILRDYAGLILFLEEDHYLAPDFYHVFKKMWKLKQQECPECDVLSLGTYSASRSFYGMADKVDVKTWKSTEHNMGLALTRNAYQKLIECTDTFCTYDDYNWDWTLQYLTVSCLPKFWKVLVPQIPRIFHAGDCGMHHKKTCRPSTQSAQIESLLNNNKQYMFPETLTISEKFTVVAISPPRKNGGWGDIRDHELCKSYRRLQ
% peak area of the bisecting (NGA2F) glycoform by CE [15]: 58.4%
% peak area of the bisecting (NGA2F) glycoform by CE [16]: 63.6%
completion of the bi-antennary GlcNAc glycan (HPLC, MALDI) [17]: > 99%

B4: GnT-III (β1,4-mannosyl-UDP-N-acetylglucosaminosyltransferase III) (enzyme)
chain: HFFKTLSYVTFPRELASLSPNLISSFFWNNAPVTPQASPEPGDPDLLRTPLYSHSPLLQPLSPSKATEELHRVDFVLPEDTTEYFVRTKAGGVCFKPGTRMLEKPSPGRTEEKTEVSEGSSARGPARRPMRHVLSSRERLGSRGTRRKWVECVCLPGWHGPSCGVPTVVQYSNLPTKERLVPREVPRRVINAININHEFDLLDVRFHELGDVVDAFVVCDSNFTAYGEPRPLKFREMLTNGTFEYIRHKVLYVFLDHFPPGGRQDGWIADDYLRTFLTQDGVSRLRNLRPDDVFIIDDADEIPARDGVLFLKLYDGWTEPFAFHMRKSLYGFFWKQPGTLEVVSGCTMDMLQAVYGLDGIRLRRRQYYTMPNFRQYENRTGHILVQWSLGSPLHFAGWHCSWCFTPEGIYFKLVSAQNGDFPRWGDYEDKRDLNYIRSLIRTGGWFDGTQQEYPPADPSEHMYAPKYLLKNYDQFRYLLENPYREPKSTVEGGRQNQGSDGRSSAVRGKLDTAEG
% peak area of the bisecting (NGA2F) glycoform by CE [15]: 58.4%
% peak area of the bisecting (NGA2F) glycoform by CE [16]: 63.6%

Now from value to molecule:

conversion to the tri-antennary glycan (2AA HPLC) [1]: 92%
Molecule: GnT-V (enzyme)

incorporation of radiolabelled sialic acid (% of the radiolabel) [2]: 5.7
Molecule: ST6Gal1 (α2,6-sialyltransferase) (enzyme)

addition of Gal; MALDI-TOF [3]: 98%
relative amount of the G2 glycoform by CE [4]: 84%
relative amount of the G2 glycoform by CE [5]: 90%
released glycans with terminal galactose (HPLC, MALDI) [6]: 97%
Molecule: GalT1 (β1,4 galactosyltransferase 1) (from UniProt P08037) (enzyme)
